{"source": "patent CN111138531A", "about": "(INST MILITARY MEDICINE ACADEMY MILITARY SCIENCES PLA, dated 2020)", "binders": {"B1": {"name": "单克隆抗体8F9 (antibody, V domains shown)", "VH": "EVQLLESGGGLVQPGGSLRLSCAASEFTFSNYAMNWVRQAPGKGLEWVSGISTRGSSTYYADSVKGRFTISRDNSKNTLYLQMNSLRVEDTAVYYCAKDRLSVFGVVLISSDYYGMDVWGQGTTVTVSS", "VL": "AIRMTQSPFSLSASVGDRVTITCRASRTISSYLNWYQKKPGKAPKLLIYAASSLQSGVPSRFSGSGSGTDFTLTISSLQPEDFATYYCQQSYSTPMTFGQGTRLEIKT"}}, "key": {"EBOV GP": {"molecular_target": "T1, EBOV GP (EBOV, UniProt Q05320 33-650)", "T1 sequence": "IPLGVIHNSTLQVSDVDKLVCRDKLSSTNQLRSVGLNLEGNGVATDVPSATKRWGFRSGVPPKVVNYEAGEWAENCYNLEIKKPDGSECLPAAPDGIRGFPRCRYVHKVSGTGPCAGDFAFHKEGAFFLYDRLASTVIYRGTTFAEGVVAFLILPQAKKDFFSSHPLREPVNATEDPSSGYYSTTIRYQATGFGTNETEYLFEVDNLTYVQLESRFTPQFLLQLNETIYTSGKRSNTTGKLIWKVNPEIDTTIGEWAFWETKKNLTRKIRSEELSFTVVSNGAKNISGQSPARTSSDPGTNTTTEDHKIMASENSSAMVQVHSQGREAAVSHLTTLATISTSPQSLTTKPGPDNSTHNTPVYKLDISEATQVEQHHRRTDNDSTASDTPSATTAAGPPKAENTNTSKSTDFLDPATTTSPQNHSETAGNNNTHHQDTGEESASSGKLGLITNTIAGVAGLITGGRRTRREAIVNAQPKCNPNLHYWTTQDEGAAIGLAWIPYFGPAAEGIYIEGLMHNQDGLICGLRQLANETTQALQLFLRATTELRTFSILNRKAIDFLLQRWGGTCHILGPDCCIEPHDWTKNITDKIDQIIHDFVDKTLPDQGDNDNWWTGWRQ", "assay": "ELISA, coated GP 1 μg/mL, 1:3 dilution series of 8F9 from 10 μg/mL"}, "SUDV GP": {"molecular_target": "T2, SUDV GP (SUDV, UniProt Q7T9D9 33-650)", "T2 sequence": "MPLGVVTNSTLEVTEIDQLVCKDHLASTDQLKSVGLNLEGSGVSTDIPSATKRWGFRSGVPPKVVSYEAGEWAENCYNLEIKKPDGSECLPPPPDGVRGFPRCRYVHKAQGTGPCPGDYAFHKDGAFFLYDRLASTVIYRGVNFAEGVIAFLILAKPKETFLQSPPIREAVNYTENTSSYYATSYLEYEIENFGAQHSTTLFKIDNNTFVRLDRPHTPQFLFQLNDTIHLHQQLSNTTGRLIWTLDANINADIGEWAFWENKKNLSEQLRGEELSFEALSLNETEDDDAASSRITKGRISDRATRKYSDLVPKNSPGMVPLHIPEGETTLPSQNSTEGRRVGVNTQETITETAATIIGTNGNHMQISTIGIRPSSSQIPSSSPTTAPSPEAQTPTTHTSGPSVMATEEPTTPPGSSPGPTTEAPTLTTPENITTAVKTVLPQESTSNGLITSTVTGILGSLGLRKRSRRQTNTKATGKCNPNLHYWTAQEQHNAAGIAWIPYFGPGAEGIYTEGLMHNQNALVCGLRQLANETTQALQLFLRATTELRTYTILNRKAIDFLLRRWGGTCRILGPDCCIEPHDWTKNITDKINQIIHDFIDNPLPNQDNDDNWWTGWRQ", "assay": "ELISA, coated GP 1 μg/mL, 1:3 dilution series of 8F9"}, "RESTV GP": {"molecular_target": "T3, RESTV GP (RESTV, UniProt Q66799 34-651)", "T3 sequence": "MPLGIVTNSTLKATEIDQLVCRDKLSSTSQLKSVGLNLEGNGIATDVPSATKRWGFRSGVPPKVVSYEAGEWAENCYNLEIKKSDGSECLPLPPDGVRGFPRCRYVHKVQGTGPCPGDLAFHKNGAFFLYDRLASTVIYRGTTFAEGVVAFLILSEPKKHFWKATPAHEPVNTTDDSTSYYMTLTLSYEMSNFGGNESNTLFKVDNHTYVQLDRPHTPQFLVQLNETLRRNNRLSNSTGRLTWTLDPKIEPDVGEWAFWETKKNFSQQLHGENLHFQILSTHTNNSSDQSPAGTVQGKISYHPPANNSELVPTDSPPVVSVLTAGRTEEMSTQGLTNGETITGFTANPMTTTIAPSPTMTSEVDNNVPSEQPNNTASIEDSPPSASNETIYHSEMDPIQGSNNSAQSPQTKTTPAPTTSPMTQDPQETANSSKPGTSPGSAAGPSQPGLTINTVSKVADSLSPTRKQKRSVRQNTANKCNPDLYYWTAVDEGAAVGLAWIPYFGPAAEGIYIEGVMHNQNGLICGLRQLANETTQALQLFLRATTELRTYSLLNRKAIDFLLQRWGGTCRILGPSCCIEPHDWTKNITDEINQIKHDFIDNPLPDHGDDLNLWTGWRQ", "assay": "ELISA, coated GP 1 μg/mL, 1:3 dilution series of 8F9"}, "GP1": {"molecular_target": "GP1 (EBOV, UniProt Q05320 33-501)", "assay": "ELISA on coated truncated GP, method as example 2"}, "sGP": {"molecular_target": "sGP (EBOV, UniProt Q05320 33-295)", "assay": "ELISA on coated truncated GP, method as example 2"}}}
{"binder": "B1", "values": [{"measurement": "EC50", "setting": "EBOV GP", "value": 15, "unit": "ng/mL"}, {"measurement": "binding result", "setting": "SUDV GP", "value": "no binding (tested: 10μg/mL (highest concentration tested))"}, {"measurement": "binding result", "setting": "RESTV GP", "value": "no binding (tested: 10μg/mL (highest concentration tested))"}, {"measurement": "EC50", "setting": "GP1", "value": 9.5, "unit": "ng/mL"}, {"measurement": "EC50", "setting": "sGP", "value": 8.8, "unit": "ng/mL"}]}
